Experiment [1] has as its target recombinant USP7 UBL1-2 (residues 535–775) (UniProt Q93009 535-775). In words: ITC. (ITC needs no label: the signal is the heat of the interaction.)
Experiment [2] has as its target recombinant USP7 TRAF domain (residues 62–205) (UniProt Q93009 62-205). In words: ITC.

Sequence of recombinant USP7 UBL1-2 (residues 535–775) (Q93009 535-775): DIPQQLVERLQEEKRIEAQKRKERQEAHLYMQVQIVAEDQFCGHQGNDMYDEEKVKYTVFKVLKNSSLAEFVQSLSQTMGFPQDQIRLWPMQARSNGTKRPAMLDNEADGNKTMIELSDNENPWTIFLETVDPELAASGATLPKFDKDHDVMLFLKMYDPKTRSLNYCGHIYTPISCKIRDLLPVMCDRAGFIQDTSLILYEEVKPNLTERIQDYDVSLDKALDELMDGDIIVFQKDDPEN
Sequence of recombinant USP7 TRAF domain (residues 62–205) (Q93009 62-205): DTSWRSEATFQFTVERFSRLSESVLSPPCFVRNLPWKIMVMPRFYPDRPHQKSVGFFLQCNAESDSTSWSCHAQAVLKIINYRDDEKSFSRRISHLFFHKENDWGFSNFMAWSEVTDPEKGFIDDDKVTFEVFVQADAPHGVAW

As usually defined, the Kd is a measure of binding affinity in units of concentration. For SGKHSFKMKDT [Pol ι peptide 438–448], in experiment [1], the Kd came out at 169 µM. Consider SPCEPGTSGFN [Pol ι peptide 573–584], for which the Kd in experiment [2] was found to be 4.8 µM.

(Values after PMC7873624 (Journal of molecular biology, 2020).)
